# Measured values taken from US20210269509A1 (Genmab, published 2021).
# T1: Protein L (recombinant protein L immobilized on a matrix; HiTrap Protein L, GE Healthcare) (Finegoldia magna)
# T1 construct: also called Protein L resin; Finegoldia magna Protein L
# T1 chain: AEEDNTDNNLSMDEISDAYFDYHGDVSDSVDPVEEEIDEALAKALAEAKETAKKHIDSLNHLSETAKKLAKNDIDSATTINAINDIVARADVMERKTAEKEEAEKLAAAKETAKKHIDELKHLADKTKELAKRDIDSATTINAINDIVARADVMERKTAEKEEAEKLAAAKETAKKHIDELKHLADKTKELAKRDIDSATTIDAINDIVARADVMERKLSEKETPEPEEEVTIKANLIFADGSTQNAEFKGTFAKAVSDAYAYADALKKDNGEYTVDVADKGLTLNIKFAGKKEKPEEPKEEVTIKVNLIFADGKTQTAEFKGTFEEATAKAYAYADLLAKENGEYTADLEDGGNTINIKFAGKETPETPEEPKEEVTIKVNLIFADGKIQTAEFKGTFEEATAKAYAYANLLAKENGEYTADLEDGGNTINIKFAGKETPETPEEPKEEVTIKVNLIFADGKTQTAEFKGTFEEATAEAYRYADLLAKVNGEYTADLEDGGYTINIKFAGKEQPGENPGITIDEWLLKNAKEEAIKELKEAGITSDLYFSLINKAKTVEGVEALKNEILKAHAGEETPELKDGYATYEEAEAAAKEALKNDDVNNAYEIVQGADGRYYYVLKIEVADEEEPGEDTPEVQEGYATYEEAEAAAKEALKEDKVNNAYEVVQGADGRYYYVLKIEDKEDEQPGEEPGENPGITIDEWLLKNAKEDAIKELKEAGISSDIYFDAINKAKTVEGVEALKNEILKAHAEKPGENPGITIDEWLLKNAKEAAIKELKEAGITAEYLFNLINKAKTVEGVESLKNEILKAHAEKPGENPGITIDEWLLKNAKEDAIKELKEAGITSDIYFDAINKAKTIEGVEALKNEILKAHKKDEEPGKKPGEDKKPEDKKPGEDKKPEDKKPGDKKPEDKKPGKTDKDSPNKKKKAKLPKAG
# B1: IgG1-2F8-F405L-S12P (antibody, name in EU numbering)
# heavy: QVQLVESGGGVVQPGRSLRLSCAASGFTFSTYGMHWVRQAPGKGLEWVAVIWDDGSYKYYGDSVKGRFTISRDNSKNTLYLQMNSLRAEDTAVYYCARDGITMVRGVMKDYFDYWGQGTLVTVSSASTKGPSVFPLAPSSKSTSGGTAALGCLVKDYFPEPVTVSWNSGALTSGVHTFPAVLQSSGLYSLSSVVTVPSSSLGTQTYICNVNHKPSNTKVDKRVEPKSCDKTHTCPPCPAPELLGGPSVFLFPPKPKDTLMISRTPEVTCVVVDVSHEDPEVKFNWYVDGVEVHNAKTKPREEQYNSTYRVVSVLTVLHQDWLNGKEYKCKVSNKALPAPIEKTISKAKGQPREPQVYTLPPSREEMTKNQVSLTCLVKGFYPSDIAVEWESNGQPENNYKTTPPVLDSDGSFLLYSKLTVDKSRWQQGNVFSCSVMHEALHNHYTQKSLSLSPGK
# light: AIQLTQSPSSLPASVGDRVTITCRASQDISSALVWYQQKPGKAPKLLIYDASSLESGVPSRFSGSESGTDFTLTISSLQPEDFATYYCQQFNSYPLTFGGGTKVEIKRTVAAPSVFIFPPSDEQLKSGTASVVCLLNNFYPREAKVQWKVDNALQSGNSQESVTEQDSKDSTYSLSSTLTLSKADYEKHKVYACEVTHQGLSSPVTKSFNRGEC
# notes: IgG1m(f), kappa; also called IgG-2F8-F405L-S12P; IgG1-2F8-S12P
# Molecular target: T1, Protein L (recombinant protein L …)
# Assay: HiTrap Protein L (5 mL) chromatography of purified antibody, step elution at pH 3.5, 3.0 and 2.5, A280 trace
binder,measurement,value
B1,binding result,no binding
